The assay addresses T1, Calmodulin (CaM), wild type, full length (UniProt P0DP26 1-149).
T1 construct: Used without calcium (buffer with 2 mM EGTA); also called WT CaM; apo-CaM; source: purified, as described previously [19]
The assay is described as follows: ITC; VP-ITC; 150 µM CaM (WT or mutant) in the syringe, 10 µM full-length Nm/Ng (WT or mutant) in the cell; Buffer A (20 mM imidazole pH 8.0, 100 mM NaCl, 2 mM EGTA); 25°C; 30 injections of 10 µl. To be noted: both partners purified.

B1: Neuromodulin (Nm), wild type, full length (natural protein)
chain: MLCCMRRTKQVEKNDEDQKIEQDGVKPEDKAHKAATKIQASFRGHITRKKLKGEKKGDAPAAEAEAKEKDDAPVADGVEKKEGDGSATTDAAPATSPKAEEPSKAGDAPSEEKKGEGDAAPSEEKAGSAETESAAKATTDNSPSSKAEDGPAKEEPKQADVPAAVTDAAATTPAAEDAATKAAQPPTETAESSQAEEEKDAVDEAKPKESARQDEGKEDPEADQEHA
notes: also called WT Nm; source: purified, as described previously [19]
On to B1, for which the binding result is “binds”.
